Assay results published in patent US20190248902A1 (published 2019).

T1: Soluble ASGR-1 (human, UniProt P07306 62-291, biotinylated)
T1 construct: Soluble recombinant protein; also called recombinant, soluble ASGR-1 biotinylated protein
T1 sequence: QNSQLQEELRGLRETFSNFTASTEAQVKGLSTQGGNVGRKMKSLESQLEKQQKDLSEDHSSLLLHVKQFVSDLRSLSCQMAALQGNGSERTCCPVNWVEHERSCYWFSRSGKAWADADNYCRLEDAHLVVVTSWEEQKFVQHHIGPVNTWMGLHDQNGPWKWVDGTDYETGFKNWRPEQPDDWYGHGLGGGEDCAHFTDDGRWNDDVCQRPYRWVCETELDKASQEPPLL

T2: Mouse ASGR-1 (mouse, UniProt P34927 1-284)
T2 construct: Expressed on HEK 293 cells or as membrane prep on beads; cDNA GenBank BC022106.1; also called muASGR-1; mASGR-1
T2 sequence: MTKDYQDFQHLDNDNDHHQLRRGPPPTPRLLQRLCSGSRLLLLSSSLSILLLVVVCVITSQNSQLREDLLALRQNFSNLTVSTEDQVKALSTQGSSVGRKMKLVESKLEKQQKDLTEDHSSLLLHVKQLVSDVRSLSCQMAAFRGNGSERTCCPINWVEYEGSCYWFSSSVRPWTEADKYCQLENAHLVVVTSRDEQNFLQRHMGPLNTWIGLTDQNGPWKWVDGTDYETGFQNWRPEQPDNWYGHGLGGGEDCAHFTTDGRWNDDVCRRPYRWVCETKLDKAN


Experiments:
Soluble ASGR-1 = biological target: T1, Soluble ASGR-1; assay: limited antigen binding assay; biotinylated soluble ASGR-1 coated at 2.5 ng/mL on LumAvidin beads, FACS
Method: To assess antibody and antigen interaction strength (relative binding affinity), ASGR-1 specific, ligand competing antibody hybridoma supernatants were tested in a limiting antigen binding assay. Titrated amounts of recombinant, soluble ASGR-1 biotinylated protein was incubated with streptavidin-coated LumAvidin Beads® for 45 minutes in the dark at room temperature and washed twice. Beads were resuspeneded in FACS buffer containing Stabilguard® and 0.05% Sodium Azide. Antigen-bound beads were then incubated with normalized hybridoma supernatant sample or controls for 18 hours in the dark at room temperature, washed twice, incubated with Alexa Fluor® 488 IgG fragment-specific detection antibody for 15 minutes in the dark at room temperature, washed once and finally resuspended in FACS buffer. Samples were analyzed using an Intellicyt iQue™ Screener Platform. FACS buffer supplemented with 1 mM Calcium Chloride was used in all steps. […] In this assay method, the antibody binding signal correlates with antibody affinity. Antibody binding data for a representative antigen coating concentration that fell in the linear range of the instrument signal detection is shown in Table 7.2. The degree of antibody binding to the target (ASGR-1) correlates with the measured fluorescent intensity and thus allows a relative comparison of affinities across the panel.

Mouse ASGR-1 = biological target: T2, Mouse ASGR-1; assay: FACS on transfected HEK 293 cells or membrane preps on beads; binding = signal at least 2x irrelevant IgG
Method: Human ASGR-1-specific, ligand competing antibody samples were tested for binding to ASGR-1 from other species (cynomologus monkey ASGR-1, mouse ASGR-1, rat ASGR-1, dog ASGR-1, and pig ASGR-1) as well as to human ASGR-2 in FACS binding assays at normalized antibody concentrations. For cell-based assays, HEK 293 cells expressing the appropriate antigen of interest were mixed with antibody sample or controls, incubated for 1 hour at 4° C., and then washed twice. Cells with bound antibody were then incubated with Alexa Fluor® 647 IgG Fc fragment-specific detection antibody and 7-AAD viability stain for 15 minutes at 4° C., washed once and resuspended in FACS buffer. Samples were analyzed using a BD Accuri™ Flow Cytometer and an Intellicyt HyperCyt Autosampler. As a negative control, supernatants and controls were also screened against HEK 293 cells transfected with empty parental vector. […] For membrane-prep binding assays, ASGR-1 species specific membrane preps were used to coat LumAvidin® microspheres (beads) and tested for binding to selected hybridoma supernatants or controls. Briefly, ASGR-1 species specific membrane preps were incubated with streptavidin-coated LumAvidin® beads for 45 minutes in the dark at room temperature and washed twice. Beads were resuspeneded in FACS buffer containing Stabilguard®. Antigen-bound beads were then incubated with normalized antibody sample for 1 hour in the dark at room temperature, washed twice, incubated with Alexa Fluor® 488 IgG Fc fragment-specific detection antibody for 15 minutes in the dark at room temperature, washed once and finally resuspended in FACS buffer. Samples were analyzed using an Intellicyt iQue™ Screener Platform. FACS buffer supplemented with 1 mM Calcium Chloride was used in all steps. As a negative control, supernatants and controls were also screened against a non-ASGR-1 antigen membrane prep coated on the LumAvidin® beads.

Row | FACS Geomean (Soluble ASGR-1) [FACS Geomean] | binding result (Mouse ASGR-1) | Binder
1 | 27000 | no binding | 48B12 (antibody, V domains shown, Tested as hybridoma supernatant at normalized concentration) VH: EVQLLESGGGLVQPGGSLRLSCAASGFTFSSYAMNWVRQAPGKGLEWVSAISGRGGNTFYADSVKGRFTISRDNSKNTLYLQMNSLRAEDTAVYYCAKRETYNWNYEGFDYWGQGTLVTVSS VL: SYELTQPPSVSVSPGQTARITCSGDALPKKYAYWYQQKSGQAPVLVIYEDSKRPSGIPERFSGSSSGTMATLTISGAQVEDEADYYCNSTDSSGNHVVFGGGTKLTVL
2 | 18300 | no binding | 193E7 (antibody, V domains shown, Tested as hybridoma supernatant at normalized concentration) VH: QVQLQQWGAGLLKPSETLSLTCAVYGGSFSGYFWTWIRQPPGKGLEWIGEINHSGSTNYNPSLKSRVTISVDTSKNQFSLKLSSVTAADTAVYYCARDYGADYWGQGTLVAVSA VL: DIQMTQSPSSLSASVGDRVTITCRASQGIRNDLGWYQQKPGKAPKRLIYSASSLQRGVPSRFSGSGSGTEFTLTISSLQPEDFATYYCLQHKRYPLTFGGGTKVEIK
3 | 12000 | no binding | 26C4 (antibody, V domains shown, Tested as hybridoma supernatant at normalized concentration) VH: QVQLVQSGAEVKKPGASVKVSCKASGYTFTNYDINWVRQASGQGLEWMGWMNPNSGNTGYAQRFQGRVTMTRNTSINTAYMELSSLRSEDTAVYYCASSSGWYYFDYWGQGTLVTVSS VL: not shown
4 | 15100 | no binding | 218G4 (antibody, V domains shown, Tested as hybridoma supernatant at normalized concentration) VH: QVQLVESGGGVVQPGRSLRLSCAASGFTFSSYGLHWVRQAPGKGLEWVAVIWYDGSNKYYADSVKGRFTISRDNSKNTLYLQMNSLRVEDTAVYYCANWYYYYYGMDVWGQGTTVTVSS VL: QSVLTQPPSVSAAPGQKVTISCSGSSSNIGNNYVSWYQQLPGTAPKLLLYDSNKRPSGIPARFSGSKSGTSATLGITGLQTGDEADYYCGTWDSSLNTVVFGGGTKLTVL
5 | 1870 | no binding | 198D2 (antibody, V domains shown, Tested as hybridoma supernatant at normalized concentration) VH: QVQLVESGGGVVQPGRSLRLSCAASGFTFRSYGMHWVRQAPGKGLEWVAVIIYDGSYKYYADSVKGRFTISRDNSKNTLYLQMNSLRAEDTAVYYCARTYSGGMDVWGQGTTVTVSS VL: QSVLTQPPSVSAAPGQKVTISCSGSSSNIGSNYVSWYQQLPGTAPKVLIYDNNKRPSGIPDRFSGSKSGTSATLGITGLQTGDEADYYCGTWDSRLNVGVFGGGTKLTVL
6 | 21900 | no binding | 194C10 (antibody, V domains shown, Tested as hybridoma supernatant at normalized concentration) VH: QVQLQQWGAGLLKPSETLSLTCAVSGGSFRYYYWSWIRQPPGKGLEWFGEINHSGSTNYNPSLKSRVTISIDTSKNQFSLKLRSVTAADTAVYYCARDYGAFDIWGQGTMVTVSS VL: EIVLTQSPGTLSLSPGERATLSCRASPSVNSGYLAWYQQKPGQTPRLLIFGASSRATGIPDRFSASGSGADFTLTISRLEPEDFAVYFCQQYESSPWTFGQGTKVEIK
7 | 29400 | no binding | 176H4 (antibody, V domains shown, Tested as hybridoma supernatant at normalized concentration) VH: QVQLVESGGGVVQPGRSLRLSCAASGFTFSSYGMHWVRQAPGKGLEWVAIIWYDGSYKYYADSVKGRFTISRDNSKNTLYLQMSSLRAEDTAVYYCARDAHDFWSGYFAYWGQGALVTVSS VL: DIVMTQTPLSLSVTPGQPASISCKSSQSLLHGDGKTYLYWYLQKPGQPPQLLIYEVSNRFSGVPDRFSGSGSGTDFTLKISRVEAEDVGIYYCMQSIQIPWTFGQGTRVEIK
8 | 2150 | no binding | 202A3 (antibody, V domains shown, Tested as hybridoma supernatant at normalized concentration) VH: QVQLEQSGAEVKKPGASVKVSCKASGYTFTSYDINWVRQATGQGLEWLGWMNPKRGNTGYAQKFQGRVTMTRNTSISTAHMELSSLRSEDTAVYYCARGRYSREDYYYYYDMDVWGQGTTVTVSS VL: DIQMSQSPSSLSASVGDRVTITCRASQGIRNDLGWYQQKPGKAPKRLICAASRLQSGVPSRFSGSGSGTEFTLTISSLQPEDFAIYYCLQHHDYPFTFGPGTKVDIK
9 | 6490 | no binding | 54E9 (antibody, V domains shown, Tested as hybridoma supernatant at normalized concentration) VH: QVQLVQSGAEVKKPGASVKVSCKASGYTFNSYGISWVRLAPGQGLEWMGWISAYNGNTKNAQKLQGRVTMTTDTSTSTAYMELRSLRSDDTAVYYCARHDFWSGYYKGMDVWGQGTTVTVSS VL: not shown

More lines, now with the values behind:

Row | Binder | FACS Geomean (Soluble ASGR-1) [FACS Geomean] | binding result (Mouse ASGR-1)
10 | 7G4 (antibody, V domains shown, Tested as hybridoma supernatant at normalized concentration) VH: QVQLVESGGGVVQPGRSLRLSCAASGFTFNNYVMHWVRQAPGKGLEWVAVIWYDGSNKYYADSVKGRFTISRDNSKNTLYLQMTSLRAEDTAVYYCAREKYSSNWYDYGMDVWGQGTTVTVSS VL: DIQMTQSPSSLSASVGDRVTITCRASQGIRNDLGWYQQRPGKAPKRLIYAASSLQSGVPSRFSGSGSGTEFTLTISSLQPEDSATYYCLHQYSYPRTFGQGTKVEIK | 6800 | no binding
11 | 5E5 (antibody, V domains shown, Tested as hybridoma supernatant at normalized concentration) VH: QVQLVESGGGVVQPGRSLRLSCAASGFTFSNYVMHWVRQAPGKGLEWVAVIWYDGSNKYYADSVKGRFTISRDNSKNTLYLQMNSLRAEDTAVYYCTREVYSSGWYDYGMDVWGQGTTVTVSS VL: DIQMTQSPSSLSASVGDRVTITCRASQGIRNDLGWYQQKPGKAPKRLIYAASSLQSGVPSRFSGSGSGTEFTLTISSLQPEDFATYYCLQHYSYPRTFGQGTKVEVK | 3280 | no binding
12 | 25A4 (antibody, V domains shown, Tested as hybridoma supernatant at normalized concentration) VH: QVLLVQSGAEVKRPGASVKVSCKASGYTFTNYDINWVRQATGQGLEWMGWMYPNSGNTGYAQKFQGRVTMTRNTSISTAYMELSSLRSEDTAVYYCASSSGWYYFDYWGQGTLVTVSS VL: DIVMTQFPDSLAVSLGERATIKCKSSQSVLYSSHNNNYLAWYQQKPGQPPKLLLYWASTRESGVPDRFSGSGSGTEFTLTISSLEAEDVAVYYCQQYYSTPPTFGQGTKVEIK | 18000 | no binding
13 | 6G7 (antibody, V domains shown, Tested as hybridoma supernatant at normalized concentration) VH: QVQLVESGGGVVQPGRSLRLSCAASGFTFSSYGMHWVRQTPGKGLEWVAIISYVGKNKYYADSVKGRFTISRDNSKNTLYLQMNSLRAEDTAVYYCARRGNSYGGYGMDVWGQGTTVTVSS VL: DIQMTQSPSSRSASVGDRVTITCQASQDISNYLNWCQQKPGKALKLLIYDASTLETGVPSRFSGSGSGTDFTFTISSVQPEDIATYYCQQYDNVPITFGQGTRLEIK | 2290 | no binding
14 | 7E11 (antibody, V domains shown, Tested as hybridoma supernatant at normalized concentration) VH: QVQLVESGGGVVQPGRSLRLSCAASGFTFSSFGMHWVRQAPGKGLEWVAIIWHDGSNKYYADSVKGRFTISRDNSNNTLYLQMSSLRAEDTAVYYCARDLSMGGMDVWGQGTTVTVSS VL: DIQMTQSPSSLSASVGDRVTIACRASQNIISYLNWYQQKPGKAPKFLIYTASSLQSGVPSRFSGSGSGTDFTLTISSLQPEDFAIYYCQQTYSTPLTFGGGTKVEIK | 4660 | no binding
15 | 22G5 (antibody, V domains shown, Tested as hybridoma supernatant at normalized concentration) VH: EVQLLESGGGLVQPGGSLRLSCAASGFTFSSYAMNWVRQAPGMGLEWVSVISRSGGYTYYADSVKGRFTISRDNSKNTLYLQMNSLRAEDTAVYYCASRLAVAGSEAFDIWGQGTLVTVSS VL: DIQMTQSPSSLSASVGDRVTITCRASQNISSYLNWYQQKQGKAPKLLIYAASSLQNGVPSRFSGRGSGTDFTLTISSLQPEDFATYYCQQSYRTPLFTFGPGTKVDFK | 1080 | no binding
